Source: the Immune Epitope Database (IEDB)
pKd: −log10 of the molar value.

Columns and labels:
HLA-A*24:03 = test: IEDB peptide-MHC binding, purified MHC/competitive/fluorescence; filed as Kd, often an IC50 or EC50 that approximates it; ≥ and ≤ were set here for values at or beyond the usual limits of such assays; conditions: source organism: Influenza A virus (A/Harbin/1/1988(H1N2))
HLA-A*03:01 = test: IEDB peptide-MHC binding, purified MHC/direct/fluorescence; filed as Kd, often an IC50 or EC50 that approximates it; ≥ and ≤ were set here for values at or beyond the usual limits of such assays
HLA-A*24:02 = test: as above
HLA-B*08:01 = test: as above
HLA-A*02:01 = test: as above
HLA-A*69:01 = test: as above
HLA-B*27:05 = test: as above
HLA-B*40:01 = test: as above
HLA-B*08:02 = test: as above
HLA-B*44:02 = test: as above
HLA-B*07:02 = test: as above
HLA-B*46:01 = test: as above
HLA-B*15:01 [1] = test: as above
HLA-A*01:01 = test: as above
HLA-A*31:01 [2] = test: as above
HLA-B*58:01 = test: as above
HLA-A*11:01 = test: as above
HLA-B*39:01 [3] = test: as above; conditions: source organism: H9N2 subtype Influenza A virus (A/swine/Korea/S83/2004(H9N2))
HLA-B*48:01 = test: as above; conditions: source organism: Mycobacterium tuberculosis
HLA-B*57:01 = test: as above; conditions: source organism: Mycobacterium tuberculosis
HLA-A*26:01 = test: as above
HLA-B*51:01 = test: as above; conditions: source organism: Mycobacterium tuberculosis
HLA-B*15:17 = test: as above; conditions: source organism: Mycobacterium tuberculosis
HLA-B*18:01 = test: as above
HLA-B*39:01 [4] = test: IEDB peptide-MHC binding, purified MHC/competitive/fluorescence; filed as Kd, often an IC50 or EC50 that approximates it; ≥ and ≤ were set here for values at or beyond the usual limits of such assays; conditions: source organism: Parafrankia sp. EAN1pec
HLA-B*15:01 [5] = test: IEDB peptide-MHC binding, purified MHC/competitive/radioactivity; filed as Kd, often an IC50 or EC50 that approximates it; ≥ and ≤ were set here for values at or beyond the usual limits of such assays; conditions: source organism: Dengue virus 2 Jamaica/1409/1983
HLA-A*02:03 = test: IEDB peptide-MHC binding, purified MHC/direct/fluorescence; filed as Kd, often an IC50 or EC50 that approximates it; ≥ and ≤ were set here for values at or beyond the usual limits of such assays; conditions: source organism: Influenza A virus(A/swine/Henan/5/2004(H9N2))
HLA-A*02:11 = test: as above; conditions: source organism: Influenza A virus(A/swine/Henan/5/2004(H9N2))
HLA-B*15:09 = test: as above; conditions: source organism: Influenza A virus(A/swine/Henan/5/2004(H9N2))
HLA-A*02:19 = test: as above; conditions: source organism: Influenza A virus(A/swine/Henan/5/2004(H9N2))
HLA-A*31:01 [6] = test: IEDB peptide-MHC binding, purified MHC/competitive/fluorescence; filed as Kd, often an IC50 or EC50 that approximates it; ≥ and ≤ were set here for values at or beyond the usual limits of such assays; conditions: source organism: Influenza A virus (A/Fort Monmouth/1/1947-mouse adapted(H1N1))
[7] = source organism: H9N2 subtype Influenza A virus (A/swine/Korea/S83/2004(H9N2))
[8] = source organism: Influenza A virus (A/Puerto Rico/8/34/Mount Sinai(H1N1))
[9] = source organism: Mycobacterium tuberculosis
[10] = source organism: Mycobacterium tuberculosis C
[11] = source organism: Influenza A virus (A/chicken/Vietnam/393/2005(H5N1))
[12] = source organism: Influenza A virus(A/swine/Shandong/fNY/2003(H9N2))
[13] = source organism: Influenza A virus (A/swine/Hong Kong/5190/99(H3N2))

Measured: pKd

CYPGYFADY
≥ 9.00: HLA-A*24:03

HFQKDAKVL
4.98: HLA-B*39:01 [3]
5.58: HLA-B*15:01 [1]; [8]
5.64: HLA-B*08:01; [8]
≤ 4.70: HLA-A*03:01; [7] | HLA-A*24:02; [7] | HLA-A*02:01; [7] | HLA-A*69:01; [7] | HLA-B*27:05; [7] | HLA-B*40:01; [7] | HLA-B*08:02; source organism: Influenza A virus(A/swine/Shandong/fZC/2003(H9N2)) | HLA-B*44:02; [7] | HLA-B*07:02; [7] | HLA-B*46:01; [7] | HLA-A*01:01; [7] | HLA-A*31:01 [2]; [7] | HLA-B*58:01; [7] | HLA-A*11:01; [7]

KPARGGSSI
5.56: HLA-B*39:01 [4]
5.58: HLA-B*51:01
≤ 4.70: HLA-A*03:01; [9] | HLA-B*48:01 | HLA-A*02:01; [9] | HLA-A*69:01; [9] | HLA-B*27:05; [9] | HLA-B*57:01 | HLA-B*40:01; [9] | HLA-A*26:01; [10] | HLA-B*08:02; [10] | HLA-B*46:01; [9] | HLA-B*15:01 [1]; [9] | HLA-A*01:01; [9] | HLA-A*31:01 [2]; [9] | HLA-B*58:01; [9] | HLA-B*15:17 | HLA-A*11:01; [9] | HLA-B*18:01; [9]

QLKGMSYSM
≤ 4.70: HLA-B*08:02; source organism: Dengue virus 2 Thailand/16681/84
7.27: HLA-B*15:01 [5]

VLTGNLQTL
≤ 4.70: HLA-A*03:01; [11] | HLA-A*24:02; [11] | HLA-B*08:01; [11] | HLA-A*69:01; [11] | HLA-B*27:05; [11] | HLA-B*40:01; [11] | HLA-A*26:01; [12] | HLA-B*08:02; [12] | HLA-B*44:02; [11] | HLA-B*07:02; [11] | HLA-B*46:01; [11] | HLA-B*15:01 [1]; [11] | HLA-A*01:01; [11] | HLA-A*31:01 [2]; [11] | HLA-B*58:01; [11] | HLA-A*11:01; [11] | HLA-B*18:01; [11]

YMFESKSMK
7.67: HLA-A*31:01 [6]
6.81: HLA-B*27:05; [8]
7.62: HLA-A*02:03
6.32: HLA-A*02:01; [8]
≤ 4.70: HLA-A*24:02; [13] | HLA-B*40:01; [13] | HLA-B*15:09 | HLA-A*26:01; source organism: Influenza A virus(A/swine/Henan/5/2004(H9N2)) | HLA-B*44:02; [13] | HLA-A*02:19 | HLA-B*07:02; [13] | HLA-B*46:01; [13] | HLA-B*15:01 [1]; [13] | HLA-A*01:01; [13] | HLA-B*58:01; [13] | HLA-B*18:01; [13]
6.63: HLA-A*03:01; [8]
8.52: HLA-A*02:11
